In publication PMC3041752:

How the values were obtained:
[1] = biological target: budding yeast Proliferating Cell Nuclear Antigen (PCNA) (budding yeast); experiment: AUC; sedimentation velocity, 100 µM protein (monomer concentration); trimer to monomers
[2] = biological target: budding yeast Proliferating Cell Nuclear Antigen (PCNA) (budding yeast); experiment: SEC-MALS; gel filtration coupled to multi-angle light scattering; 3 or 0.3 mg/ml (~100 or 10 µM) in 20 mM sodium phosphate, 150 mM NaCl, 0.03% (w/v) sodium azide, pH 7.0
[3] = biological target: human Proliferating Cell Nuclear Antigen (PCNA) (human); experiment: AUC; sedimentation velocity, 100 µM protein (monomer concentration); trimer to monomers
[4] = biological target: human Proliferating Cell Nuclear Antigen (PCNA) (human); experiment: SEC-MALS; gel filtration coupled to multi-angle light scattering; 3 or 0.3 mg/ml (~100 or 10 µM) in 20 mM sodium phosphate, 150 mM NaCl, 0.03% (w/v) sodium azide, pH 7.0

With “budding yeast Proliferating Cell Nuclear Antigen (PCNA) (natural protein)” as the substance, how does the population of monomers in equilibrium with the trimer [1] read?
The population of monomers in equilibrium with the trimer was less than 3%.

What about the stoichiometry N [1] of the same substance?
The stoichiometry N was 3.

What about the population of species with the molecular weight of a dimer of trimers [2] of the same substance?
Its population of species with the molecular weight of a dimer of trimers is less than 4%.

What about the stoichiometry N [2] of the same substance?
The stoichiometry N was 3.

“human Proliferating Cell Nuclear Antigen (PCNA) (natural protein)” was tested. Which population of monomers in equilibrium with the trimer [3] did it give?
Its population of monomers in equilibrium with the trimer is less than 3%.

And the stoichiometry N [3]?
The stoichiometry N was 3.

What about the population of species with the molecular weight of a dimer of trimers [4] of the same substance?
Its population of species with the molecular weight of a dimer of trimers is less than 4%.

And the stoichiometry N [4]?
The stoichiometry N was 3.
